Experimental data taken from the nanobody polyreactivity screen of Harvey et al. (2022).

assay: yeast display, Sf9 membrane polyspecificity reagent, FACS + sequencing; frameworks hold sequencing errors
In short: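 Nanobodies came from a synthetic yeast display library in Saccharomyces cerevisiae BJ5465, induced with galactose for 36–48 hours and stained for 1 hour at 4 °C with 10% biotinylated, detergent-solubilized Sf9 membrane reagent. Cells were enriched on streptavidin microbeads and then FACS-sorted, with low and high (top ~1%) gates set on anti-HA fluorescence for expression and streptavidin fluorescence for reagent binding. Each polyreactivity label reflects the gate a clone came from. Genes were amplified by colony PCR, sequenced by MiSeq 2 × 250 and filtered by CDR length.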

Row | Sequence | polyreactivity (PSR sort gate)
1 | QVQLVDSGGGLVQAGGSLRLSCAASGRIFDRNAMGWYRQAPGKERDLVARIDPGDDTNYADSVKGRFTISRDNAKNTVYLQMNSQKPEDTAVYYCATDPDYVLYRTAYYEYDYWGQGTQVTVSS | low polyreactivity
2 | QVQLVESGGGLVQAGGSLRLSCAASGRIIPAYDMGWYRQAPGKERELVAAISQGAGGSTYYADSVKGRFTISRDNAKNTVYLQMISLKPEDTAVYSCAREGESGVVDTYGHVYVYEYDYWGQGTQVTVSS | low polyreactivity
3 | QVQLVESAAGLVQAGGSLRLSCAPSGIIFGSYAMGWYRQEPGKESELVAAISRGTSTYYADSVKGRFTISRDNAKNTVYLQMNSLKPEDTAVYYCAATRQQYGPLSRFVYWYYYWGQGTQVTVSS | low polyreactivity
4 | QVQLVESGGGLVQAGGSLRLSCAASGRTFWYYAMGWYRQAPGKERELVAYADSVKGRFTISRDKAKNTVYLQMNSLKPEDTAVYYCAVGPVVWFSSSLYYTEYYYWGQGTQVTVSS | low polyreactivity
5 | QVQLVESGGGLVQAGGSLRLICAASGSIFNGYAMGWYSQAPGKERELVADIRSGGSTYYADSVKGRFTISRDNAKNTVYLQMNSLKPEDTAVYYCAADTITDGYDYWGQGTQVTVSS | low polyreactivity
6 | QVQLVESGGGLVQAGGSLRLSCAASGSIFNRNAMGWYRQAPGKERELVAAINYSGGSTYYADSVKGRFTISRDNAKNTVYLQMNSLKPEDTAVYYCAARPVALRKYDYWGQGTQVTVSS | low polyreactivity
7 | QVQLVESGGGLVQAGGSLRLICAASGSTFVPNAMGWYRQAPGKERELVAAITLSGVSTYYADSVKGRFTISRDNAKNTVYLQMNSLKPEETAVYYCAKDRPGWFHKYDYWGQGTQVTVSS | low polyreactivity
8 | QVQLVESGGGLVQAGGSLRLSCAASGSTINQYAMGWYRQAPGKERELVAAITRRGGSTYYADSVKGRFTISRDNAKNTVYLQMNSLKPEDTAVYYCAAAYPYTTVSYDYWGQGTQVTVSS | high polyreactivity
9 | QVQLVESGGGLVQAGGSLRLSCAASGSIFTGNAMGWYRQAPGKERELVAGISKSGGSTYYADSVKGRFTISRDNAKNTVYLQMNSLKPEDTAVYYCAAREGWWPYYYWGQGTQVTVSS | high polyreactivity
10 | QVQLVESGGGLVQAGGSLRLSCAASGYIFKYYVMGWYIQAPGKERELVAGISSTGGTTYYADSVKGRFTISRDNAKNTVYLQMNSLKPEDSAVYYFAADRVYEASQGYTYFDYDYWGQGTQVTVSS | low polyreactivity
11 | QVQLVESGGGLVQAGGSLRLSCAASGSTFPRYAMGWYRQAPGKERELVAAISSGGSTYYADSVKGRFTISRDNAKNTVYLQMNSLKPEDTAVYYCNARRSRSRYDYWGQGTQVTVSS | high polyreactivity
12 | QVQLVESGGGLDQAGGSLRLSCAASGSTYPGNAMGWYRQAPGKERELVAAIDSSTGSTYYADSVKGRFTISRDHAKNTVYLQMNSLKPEDNAVYYCNKTSFLVKLDYWGLGTQVTVSS | low polyreactivity
13 | QVQLVESGGGLVQAGGSLRLSCAASGRIFVHNVMGWYRQAPGKERELVAAITVSGGGTYYADSVKGRFTISRDNAKNTVYLQMNSLKQEDTAVYYCNAVPHPYDWGQGTQVTVSS | low polyreactivity
14 | QVQLVESVGGLVQAGGSLRLSCAASGFTFRKYAMGWYRQAPGKERELVAGISWSGGTTYYADSVKGRFTISRDNAKNTVYLQMNSLKPEDTAVYYCNAKRVQVFAGYSYDYWGQGTQVTVSS | high polyreactivity
15 | QVQLVESGGGLVQAGGSLRLSCAASGNIFDRYVMGWYRQAPVKERELVAAISVSGGSTYYADSVKGRFTISRDNEKNSVYLQMNCLKPEDTAVYYCAAHSRLINWYDYWGQGTQVTVSS | high polyreactivity
16 | QVQLVESGGGLVQAGGSLRLSCAASGFTFKYYAMGWYRQAPGKERELVARISWSGGSTYYADSVKGRFTISRDNAKNTFYLQMNSLKPEDTAVYYCNTDVGYGFDYWGQGTQVTVSS | high polyreactivity
17 | QVQLVESGGGLVQAGGSLRLICAASGRTFVPYAMGWYRQAPGKERELVAAINSGGSTYYADSVKGRFTSSRDNAKNTVYLQMNSLKPADTAVYDCAAEYWNSRFSYAYGYWGQGTQVTVSS | high polyreactivity
18 | QVQLVESGGGLVQAGGSLRLSCAASGRIFGYNAMGWYRQAPGKERELVASIRSGGSTNYADSVKGRFTISRDNAKNTVYLQMNSLKPEDTAVYYCAKSYRWHLNGGLGWRLGNYWGQGTQVTVSS | high polyreactivity
19 | QDQLVESGGGLVQAGGSLRLSCAASGSTFNAYAMGWYRQAPGKERELVADISISGGTYYADSVKGRFTISRDNAKNTVYLQMNSLKPEDTAVYYCAAKPSWHGVYYWGQGTQVTVSS | low polyreactivity
20 | QVQLVESGGGLVQAGGSLRLSCAASGSILSYYAMGWYRQAPGKERELVAAITGGGSTYYADSVKGRFTISRDNAKNTVYLQMNCLKPEVTAVYYCAALWWTYGIGYGYWGQGTLVTVSS | high polyreactivity
21 | QVQLVESGGGLVQAGGSLRLSCAASGSIFYTNAKGWYRPAPGKERELVAAISYGGTTTYADSVKGRFTISRDNAKNTVYLQMNSLIPEDTAVYYCNADWLYYGYWGYGHIWYDFWGQGTQVTVSS | low polyreactivity
22 | QVQLVESGGGLVQAGGSLRLSCAASGRIFYTYAMGWYRQAPGKERELVSSITWSDGNTYYADSVKGRFTISRDNAKNTDYLQMNSLKPEDTAVYYCAAGDSFYVYLWPTYDYWGQGTQVTVSS | low polyreactivity

Row | Sequence | polyreactivity (PSR sort gate)
23 | QVQLVESGGGLVQAGGSLRLSCAASGSIFYYYAMGCYTQAPGKERELVAAITSGGSTYYADSVNGRFTISRDNAKNSGYLQMNSLKPEDTAVYYCNNAFPYFDDYWGQGTQVTVSS | low polyreactivity
24 | QVQLVESGGGLVQAGGSLRLSCAASGRIFDGYAMGWNRKAPGKERELVPAISGGGNTKYADSEKGRFTISRDNAKNTVYLQMNSLKPEDTAVYYCAARGYYYGYRFDSWGQGTQVTVSS | high polyreactivity
25 | QVQLVESGGGLVQAGGSLRLSYAPSGRTFGYYAMGWYRQAPGKERELVAAIRSTGSTNYADSVKGRFTISRDNAKNTVYLQMNRLKPEDTAVYYCNAKRRFRYDYWGQGTQVTVSS | low polyreactivity
26 | QVQLVESGGGLVQAGGSLRLSCAASGFIFQIYAMGWYRQAPGKERELVAAISSGGSTNYADSVKGRFTISRDNAKNTVYLQMNSLKPEDTAVYYCAAATHYWYFYSFKDKSGFRGYYWGQGTQVTVSS | high polyreactivity
27 | QVQLVESGGGLVQAGGSLRLSCAASGIIFSYNFMGWYRQAPGKERELVAGISRSGGSTYYADSVKGRFTISRDNAKNTVYLQMNSLKPEDTAVYYCNTVERGQNRRPGDKARRYDWGQGTQVTVSS | high polyreactivity
28 | QVQLVESGGGLVQAGGSLRLSCAASGPTFYEYAMGWYRQAPGKERELVARITRGGSTYYADSVKGRFTISRDNAKNTVYLQMNSLKPEDTAVYYCAAPYKDLYPYYEYDYWGHGTQVTVSS | low polyreactivity
29 | QVQLVESGGGLVQAGGSLRLTCAASGSIFYFNTMGWYRQAPGKERELVAVISRRGGSTYYADSVKGRFTISRDNAKNTVYLQMNSLKPEDTAVYYCNAEVFDLWRSFLSPYEYWGQGTQVTVSS | low polyreactivity
30 | QVQLVESGGGLVQAGGSLRLSCAASGDITYIYAMGWYRQAPGKERELVADISSSVGNTYYADSVKGRFTISRDNAKNTVYLQMNSLKPEDTAVYYCNADYVQPTESGGTYDYWGQGTQVTVSS | low polyreactivity
31 | QVQLVESGGGLVQAGGSLRLSCAASGRTFYFNSMGWYRQAPGKERELVASISYGSNTNYADSVKGRFTISRDNAKNTVYLQMNSLKPEDTAVYYCAVRWVYRTYSWGARYGRYDYWGQGTQVTVSS | high polyreactivity
32 | QVQLVESGGGLVQAGGSLRLSCAASGRILYHYAMGWYRQAPGKERELVAAITFSGDTTYYADSVKGRFTISRDNAKNTVYLQMNSLKPEDTAVYYCNTDYYWNYVSRLYDYWGQGTQVTVSS | high polyreactivity
33 | QGQLVESGGGLVQAGGSLRLSCAASGLTFSPNAMGWYRQEPGKERELVAAISSSGGRTNYADSVKGRFTISRDNAKNPVYLLMNSLKPEDTAVYYCFTNSFYEDDDWGQGTQVTVSS | high polyreactivity
34 | QVQLVESGGGLVHAGGSLRLSCSASGSTLRFNAMGWYRQAPGKVREFVATITRRGGSTYYADSEKGRFTISRDNAKNTVYLQMNSLKPEDTAVYYCAADRGGYSVLGGYWGQGTQVTVSS | high polyreactivity
35 | QVQLVESGGGLVQAGGSLRLSCAASGRIFKVNTMGWYRQAPGKERELVASIRGGGSTNYADSVKGRFTISRDNAKNTVFLQMNSLKPEDTAVYYCAVGPNSVGNRSYGFDYWGQGTQVTVSS | low polyreactivity
36 | QVQLVESGGGLVQAGGSLRLSCAASGLIIASYAMGWYRQAPGKERELVAAINTGGSTYYADSVKGRFTISRDNAKNTVYLQMNSLKPEDTAVYYCAARYTGLSYSRYGYWGQGTQVTVSS | high polyreactivity
37 | QVQLVESGGGLVQAGGSLRLSCAASGSIFYPYAMGWYSQAPGKERELVAGISRSGASTYYADSVKGRFTISRDNAKNTVYLQMNSLKPEDTAVYYCAADDWTRNYWGQGTQVTVSS | low polyreactivity
38 | QVQLVESGGGLVQAGGSLRISCAASGFTFHSYAMGWYIQAPGKERELVDAISYSGGSTYYADSVKGRFTISRDNAKNTVYLQMNSLKPEDSAVYYCAVLRYIYGYANDYWGQGTQLTVSS | low polyreactivity
39 | QVQLVESGGGLVQAGGSLRLSCAASGSTFYVYAMGWYRQAPGKERELVAAITVRGGSTYYADSVKGRFTISRDNAKKTVYLQMNSLKPEDTAVYYCNAEGTYGYWRSYNYWGQGTQVTVSS | high polyreactivity
40 | QVQLVDSGGGLVQAGGSLRLRCAASGRIFWYYAMGWYRQAPGKERELVASITRGNNTYYADSVKGRFTISRDNAKNTVYLQMNSLKPEVTAVFYCAKRYIYSYYWGQGTQVTVSS | high polyreactivity
41 | QLQLVESGGGLVQAGGSLRLSCAASGRTFRYNAMGWYRQAPGKERELVASISWRGGSTYYADSVKGRFTISRDNAKNTVYLQMNSLKPEDTAVYYCVADAAHSEYDYWGQGTQVTVSS | high polyreactivity
42 | QVQLVESGGGLVQAGGSLRLSCAASGRTFNGYAMGWYRQAPGKERELVARITYRGGGTYYADSVKGRFTISRDNAKNTVYLQMNSLKPEDTAVYYCNARGVQYRYYYWGQGTQVTVSS | high polyreactivity
43 | QVQLVESGGGLVQAGGSLRLSCAASGFTLHSYAMGWYRQAPGKERELVAAITTGGSTYYADSVKGRFTISRDNAKNTVYLQMNSLKPEDTAVYYCAAEDPGPYGGYDYWGQGTQVTVSS | low polyreactivity
